T1: ANGPTL2 (R&D systems, 9795-AN) (UniProt Q9UKU9 23-493, limits assumed)
T1 construct: also called ANGTPL2
T1 sequence (looked up): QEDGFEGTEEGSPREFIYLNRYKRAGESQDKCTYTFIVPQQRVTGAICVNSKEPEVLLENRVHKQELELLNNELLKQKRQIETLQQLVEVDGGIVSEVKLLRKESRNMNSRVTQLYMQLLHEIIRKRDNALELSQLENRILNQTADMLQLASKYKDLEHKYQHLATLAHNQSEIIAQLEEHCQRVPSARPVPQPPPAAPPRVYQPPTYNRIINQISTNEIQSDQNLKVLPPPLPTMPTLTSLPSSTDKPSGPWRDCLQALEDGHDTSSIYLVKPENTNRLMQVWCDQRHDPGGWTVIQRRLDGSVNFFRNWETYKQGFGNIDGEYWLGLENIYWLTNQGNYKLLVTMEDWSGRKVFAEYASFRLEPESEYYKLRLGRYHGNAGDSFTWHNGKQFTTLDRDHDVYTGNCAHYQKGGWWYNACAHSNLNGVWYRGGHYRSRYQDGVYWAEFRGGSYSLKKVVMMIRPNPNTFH

B1: human LILRB1 (receptor, UniProt Q8NHL6 24-458, looked up)
chain: GHLPKPTLWAEPGSVITQGSPVTLRCQGGQETQEYRLYREKKTALWITRIPQELVKKGQFPIPSITWEHAGRYRCYYGSDTAGRSESSDPLELVVTGAYIKPTLSAQPSPVVNSGGNVILQCDSQVAFDGFSLCKEGEDEHPQCLNSQPHARGSSRAIFSVGPVSPSRRWWYRCYAYDSNSPYEWSLPSDLLELLVLGVSKKPSLSVQPGPIVAPEETLTLQCGSDAGYNRFVLYKDGERDFLQLAGAQPQAGLSQANFTLGPVSRSYGGQYRCYGAHNLSSEWSAPSDPLDILIAGQFYDRVSLSVQPGPTVASGENVTLLCQSQGWMQTFLLTKEGAADDPWRLRSTYQSQKYQAEFPMGPVTSAHAGTYRCYGSQSSKPYLLTHPSDPLELVVSGPSGGPSSPTTGPTSTSGPEDQPLTPTGSDPQSGLGRH
B2: ANGPTL7 (R&D systems, 914-AN) (ligand, UniProt O43827 27-346, looked up)
chain: QKLSKHKTPAQPQLKAANCCEEVKELKAQVANLSSLLSELNKKQERDWVSVVMQVMELESNSKRMESRLTDAESKYSEMNNQIDIMQLQAAQTVTQTSADAIYDCSSLYQKNYRISGVYKLPPDDFLGSPELEVFCDMETSGGGWTIIQRRKSGLVSFYRDWKQYKQGFGSIRGDFWLGNEHIHRLSRQPTRLRVEMEDWEGNLRYAEYSHFVLGNELNSYRLFLGNYTGNVGNDALQYHNNTAFSTKDKDNDNCLDKCAQLRKGGYWYNCCTDSNLNGVYYRLGEHNKHLDGITWYGWHGSTYSLKRVEMKIRPEDFKP
B3: LILRB2 (c-terminally biotinylated, BPS Bioscience #100335) (receptor, human, UniProt Q8N423 22-460, looked up)
chain: QTGTIPKPTLWAEPDSVITQGSPVTLSCQGSLEAQEYRLYREKKSASWITRIRPELVKNGQFHIPSITWEHTGRYGCQYYSRARWSELSDPLVLVMTGAYPKPTLSAQPSPVVTSGGRVTLQCESQVAFGGFILCKEGEDEHPQCLNSQPHARGSSRAIFSVGPVSPNRRWSHRCYGYDLNSPYVWSSPSDLLELLVPGVSKKPSLSVQPGPVMAPGESLTLQCVSDVGYDRFVLYKEGERDLRQLPGRQPQAGLSQANFTLGPVSRSYGGQYRCYGAHNLSSECSAPSDPLDILITGQIRGTPFISVQPGPTVASGENVTLLCQSWRQFHTFLLTKAGAADAPLRLRSIHEYPKYQAEFPMSPVTSAHAGTYRCYGSLNSDPYLLSHPSEPLELVVSGPSMGSSPPPTGPISTPGPEDQPLTPTGSDPQSGLGRHLGV
modifications: C-terminal biotin
notes: Bought biotinylated protein; also called human LILRB2; biotinylated LILRB2

Key:
[1] = target: T2, HLA-B57(A46E/V97R).β2m (HLA-B57 A46E/V97R IgG4 fusion protein associated with β2m) (human; homo sapiens); assay: BLI
T2 construct: Complex secreted from CHO cells co-transfected with the fusion protein and β2m; also called iosH2; IosH2

[2] = target: B3; assay: BLI, biotinylated LILRB2 sensors, ANGPTL7 titrated with or without prior incubation of the sensor with iosH2
[3] = target: T1, ANGPTL2 (R&D systems, 9795-AN); assay: BLI, biotinylated LILRB2 sensors, ANGPTL2 titrated with or without prior incubation of the sensor with iosH2

Binder: B1
- binding result [1]: binds

Binder: B2
- binding result [2]: binds

Binder: B3
- binding result [3]: binds

— patent US20240366718A1 (IMMUNOS THERAPEUTICS, published 2024)
